Consider two molecules from patent publication US20110177600A1 (published 2011).

For this assay, the target named is diphtheria toxin (UniProt P00588 33-567). Description: cell-based or functional assay.
Sequence of diphtheria toxin (P00588 33-567 limits assumed): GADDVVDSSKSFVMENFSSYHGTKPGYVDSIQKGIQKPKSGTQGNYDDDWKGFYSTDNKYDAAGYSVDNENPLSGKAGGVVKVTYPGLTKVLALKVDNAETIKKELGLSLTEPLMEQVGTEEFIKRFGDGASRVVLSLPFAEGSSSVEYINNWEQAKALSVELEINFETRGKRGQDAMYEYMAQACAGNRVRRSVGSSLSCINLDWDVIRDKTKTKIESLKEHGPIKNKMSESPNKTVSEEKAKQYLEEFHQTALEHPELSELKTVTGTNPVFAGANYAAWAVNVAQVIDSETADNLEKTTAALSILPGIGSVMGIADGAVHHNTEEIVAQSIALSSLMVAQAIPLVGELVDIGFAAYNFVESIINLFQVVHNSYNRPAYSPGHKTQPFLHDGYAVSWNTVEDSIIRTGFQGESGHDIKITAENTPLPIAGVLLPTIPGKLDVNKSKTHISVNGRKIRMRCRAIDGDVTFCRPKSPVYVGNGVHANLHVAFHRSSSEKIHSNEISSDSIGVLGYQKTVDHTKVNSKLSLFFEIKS

B1: anti-diphtheria toxin antibody expressed in DG44 cells (antibody, human IgG1, kappa, V domains shown)
VH: EVQLVESGGGLVKPGGSLRLSCEASGFIFSDYYMSWIRQAPGKGLEWISYISPSGSTLYYADSMRGRFTISRDNAKNSLYLQMNSLRVEDTAVYFCAREYPTTSKVAITPNWFDLWGQGTLVTVSS
VL: ETTLTQSPATLSLSPGERATLSCRASQSVSTFLAWYQQKPGQAPRLLIYDASNRATGIPARFSGSGSGTDFTLTISSLEPEDFAVYYCQQRNIWPSFGGGTKVDIKR
Turning to B1, the “EC50 for protecting Jurkat cells from killing by diphtheria toxin (3H-thymidine incorporation)” value was determined as 8 ng/mL.

B2: anti-diphtheria toxin antibody expressed in PER.C6 cells (antibody, human IgG1, kappa, V domains shown)
VH: B1 VH
VL: B1 VL
B2: the “EC50 for protecting Jurkat cells from killing by diphtheria toxin (3H-thymidine incorporation)” value is 11 ng/mL.
